What is called stoichiometry N is the number of molecules, sites or subunits per partner or assembly.

From publication PMC9061257 come the findings set out here.

The target of this test is pseudouridine kinase from Escherichia coli strain B (EcPUKI), wildtype (E. coli strain B) (UniProt P30235). The test can be described thus: SEC.

With “pseudouridine kinase from Escherichia coli strain B (EcPUKI), wildtype (from UniProt P30235 1-313) (enzyme)”, the stoichiometry N was determined as 2.
